Key:
[1] = target: Photosystem II subunit S (PsbS) of Physcomitrella patens, recombinant, detergent-refolded (Physcomitrella patens); experiment: DOSY NMR; PsbS in FC-12, pH 7.5; 1H HN intensities, double-exponential fit
[2] = target: Photosystem II subunit S (PsbS) of Physcomitrella patens, recombinant, detergent-refolded (Physcomitrella patens); experiment: SDS-PAGE without boiling; PsbS refolded in FC-12, pH 7.5; samples taken day 0 to day 90 after refolding; not boiled before loading
[3] = target: Photosystem II subunit S (PsbS) of Physcomitrella patens, recombinant, detergent-refolded (Physcomitrella patens); experiment: SEC; Superdex 200 5/150 GL; 100 mM sodium phosphate pH 7.5 with 1% OG; detection at 260 nm
[4] = target: Photosystem II subunit S (PsbS) of Physcomitrella patens, recombinant, detergent-refolded (Physcomitrella patens); experiment: SEC; Superdex 200 5/150 GL; 100 mM sodium phosphate pH 7.5 with 0.05% FC12; detection at 260 nm
[5] = target: Photosystem II subunit S (PsbS) of Physcomitrella patens, recombinant, detergent-refolded (Physcomitrella patens); experiment: SDS-PAGE without boiling; PsbS refolded in FC-12, pH 5.0; samples taken day 0 to day 90 after refolding; not boiled before loading
[6] = target: Photosystem II subunit S (PsbS) of Physcomitrella patens, recombinant, detergent-refolded (Physcomitrella patens); experiment: DOSY NMR; PsbS in FC-12, pH 5.0; 1H HN intensities, double-exponential fit

stoichiometry N [1]: 2 | stoichiometry N [2]: 2 | stoichiometry N [3]: 2 | stoichiometry N [4]: 2 | stoichiometry N [5]: 2 | stoichiometry N [6]: 2
Substance: Photosystem II subunit S (PsbS) of Physcomitrella patens, recombinant, detergent-refolded (natural protein)
